From article PMC7159914

Key:
[1] = target: rotavirus (RV) A VP3, full-length recombinant (rotavirus A); assay: SEC + AUC
[2] = target: rotavirus (RV) A VP3, full-length recombinant (rotavirus A); assay: cryo-EM structure
[3] = target: rotavirus (RV) A VP3, full-length recombinant (rotavirus A); assay: crystal structure

Measured: stoichiometry N

rotavirus (RV) A VP3, full-length recombinant (enzyme)
4: all assays above
